From US9862746B2, “Compositions and methods relating to hindering DOT1L recruitment by MLL-fusion proteins” (The Regents of the University of Michigan, priority 2013, dated 2018)
One block for each molecule: values may come before it. Where a SMILES comes first, the peptide text is derived from it.

Key:
ENL (489-559) = target: T1, ENL (489-559) (Homo sapiens, UniProt Q03111); assay: SPR binding of ENL to immobilized DOT1L constructs; details: DOT1L construct immobilized on CM5 sensor chip, read-out: ENL (489-559) Kd ± SD
T1 construct: ENL protein (residues 489-559); MBP (pMSCG9-LIC vector); made in house; host or cells: Escherichia coli BL21 (DE3)
T1 sequence (Q03111 489-559): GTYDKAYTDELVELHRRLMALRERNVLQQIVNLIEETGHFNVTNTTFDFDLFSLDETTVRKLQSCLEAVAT
Excerpt: (§1) AF9 and ENL are two of the most common MLL fusion proteins (see, e.g., Daser A, Rabbitts T H (2004) Genes & development 18: 965-974) and belong to the YEATS protein family (see, e.g., Schulze J M, et al., (2009) Biochem Cell Biol 87: 65-75). Both of these two proteins consist of N-terminal YEATS domain and a C-terminal hydrophobic domain (see, e.g., Zhang W, et al., (2007) J Clin Invest 117: 773-783). AF9 and ENL shared high homology in the C-terminal domain and it had been shown that through this domain AF9/ENL are involved in the PPI which is crucial for MLL leukemia transformation (see, e.g., Dobson C L, et al., (1999) Embo J 18: 3564-3574; Mueller D, et al., (2007) Blood 110: 4445-4454; Yokoyama A, et al., (2010) Cancer cell 17: 198-212). The interaction of AF9 or ENL with DOT1L has been reported previously by co-immunoprecipitation and yeast 2-hybrid studies (see, e.g., Biswas D, et al., (2011) PNAS 108: 15751-15756; Yokoyama A, et al., (2010) Cancer cell 17: 198-212; Zhang W, et al., (2006) J Biol Chem 281: 18059-18068; Zhang W, et al., (2007) J Clin Invest 117: 773-783; Mueller D, et al., (2007) Blood 110: 4445-4454). However, there is a lack of detailed biochemical and biophysical characterization of this interaction. To understand the molecular basis of DOT1L interaction with MLL-fusion proteins, these PPIs were analyzed using surface plasma resonance (SPR). An SPR assay was developed to quantify the binding affinity between full length DOT1L protein and MLL-fusion proteins. For that purpose, the flag-tagged full length DOT1L protein was transiently transfected in HEK 293 cells and after 48 hours transfection the flag-tagged DOT1L protein was captured from the HEK 293 whole cell lysate on an anti-flag antibody-coated biosensor chip (FIG. 1B and FIG. 14). The recombinant C-terminal domain from human AF9 (residues 497-568) and the corresponding segment from ENL protein (residues 489-559) were cloned, expressed and purified for the biochemical binding studies (FIG. 1A). […] For the first time these studies quantitatively determined the binding affinity of DOT1L to AF9 and ENL and confirmed that DOT1L directly interacts with AF9 and ENL and has about six folds higher affinity against AF9 in comparison with ENL.
(§2) Surface Plasmon Resonance (SPR) binding studies—All SPR based experiments were performed on a BIAcore 2000 (BIAcore, GE Healthcare) instrument. Different tested DOT1L recombinant proteins were immobilized on a CM5 sensor chip by standard EDC/NHS coupling chemistry followed by ethanolamine deactivation of the surfaces. For immobilization of full length Flag-DOT1L protein, anti-Flag antibody (Sigma, Anti-FLAG M2) was immobilized on CM5 chip by the same amine coupling chemistry. HEK293 whole cells lysate with overexpressed Flag-DOT1L at 2.4 μg/l total protein concentration was injected over the Flag antibody surface, followed by injecting of AF9 and ENL in different concentrations. […] The Fcl surface was used as a control surface and was treated in the same manner as the active surfaces but in the absence of immobilized protein. Binding parameters, kon, koff and Kd were calculated by simultaneous non-linear regression using BIAEvaluation software.

AF9 (497-568) = target: T2, AF9 (497-568) (Homo sapiens, UniProt P42568); assay: SPR binding of AF9 to immobilized DOT1L constructs; details: DOT1L construct immobilized on CM5 sensor chip, read-out: AF9 (497-568) Kd ± SD
T2 construct: human AF9 (residues 497-568); GB1 (pGB1-LIC vector); made in house; host or cells: Escherichia coli BL21 (DE3)
T2 sequence (P42568 497-568): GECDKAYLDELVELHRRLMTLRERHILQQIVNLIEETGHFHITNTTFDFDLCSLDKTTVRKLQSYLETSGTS
Excerpt: as §1, §2

ENL [1] = target: T3, ENL (Homo sapiens, UniProt Q03111); assay: Solution competitive SPR assay of peptides, ENL-DOT1L interaction; assay type: binding; details: CM5 chip with immobilized DOT1L protein, read-out: IC50 ± SD ENL
T3 construct: against AF9(497-568) and ENL (489-559) proteins running different tested concentrations over CM5 chip; MBP (pMSCG9-LIC vector); made in house; host or cells: Escherichia coli BL21 (DE3)
T3 sequence (Q03111 489-559): T1 sequence (Q03111 489-559)
Protocol: (§3) Solution competitive SPR based assay was performed to determine the IC50 values of DOT1L peptides. […] Response units (RU) were measured at 15 seconds in the dissociation phase and the specific binding was calculated by subtracting the control surface (Fcl) signal from the surfaces with immobilized Mocr-DOT1L. IC50 values were determined by non-linear least squares analysis using Graph Pad Prism 5.0 software.

AF9 [2] = target: T4, AF9 (Homo sapiens, UniProt P42568); assay: SPR competitive binding assay of small molecules, AF9-DOT1L; design: against AF9(497-568) and ENL (489-559) proteins running different tested concentrations over CM5 chip; GB1 (pGB1-LIC vector); made in house; host or cells: Escherichia coli BL21 (DE3)
T4 sequence (P42568 497-568): T2 sequence (P42568 497-568)
Excerpt: Several secondary assays have already been developed to support hit confirmation and the hit-to-probe optimization process. The established and optimized SPR-based competitive assay utilizing DOT1L protein (826-1095) immobilized on the CM5 sensor chip was used as a secondary counter screen assay to validate binding of compounds to AF9. […] Both assays gave similar IC50 values.
(§4) To further validate the binding of the confirmed compounds and identify potential promiscuous inhibitors, several secondary assays have been developed to support hit confirmation and the hit-to-probe optimization process. In order to determine that the compounds bind effectively to the target and disrupt protein-protein interaction, a SPR competitive binding assay was used. This assay uses a platform that differs from the FP-based assay where DOT1L recombinant protein (residues […]) is immobilized on a CM5 chip, allowing for testing of the inhibitors for their ability to disrupt AF9-DOT1L protein-protein interactions.

ENL [3] = target: T3, ENL; assay: SPR competitive binding assay of small molecules, ENL; details: SPR competitive based assay; read-out: ENL IC50 ± SD
Excerpt: as §4
This class of compounds was also tested for their binding against ENL protein, which is highly homologous with AF9.

AF9 [4] = target: T4, AF9; assay: Optimized competitive FP binding assay (N-Flu-DOT1L / AF9); design: the recombinant GB1-AF9 protein (residues 497-568); made in house; host or cells: Escherichia coli BL21 (DE3)
AF9 [5] = target: T4, AF9; assay: Solution competitive SPR assay of peptides, AF9-DOT1L interaction; assay type: binding; design: against AF9(497-568) and ENL (489-559) proteins running different tested concentrations over CM5 chip; GB1 (pGB1-LIC vector); made in house; host or cells: Escherichia coli BL21 (DE3); details: CM5 chip with immobilized DOT1L protein, read-out: IC50 ± SD AF9
Protocol: as §3

[6] = SPR competitive based assay, read-out: AF9 IC50 ± SD
[7] = SPR competitive, read-out: IC50, inhibition of AF9-DOT1L interaction

Kd (ENL (489-559)): 206 ± 80 nM
Kd (AF9 (497-568)): 33 ± 4 nM
Molecule: DOT1L (1-1537): Flag-tagged full length human DOT1L protein

IC50 (AF9 [2]; [6]): 43100 ± 800 nM
IC50 (ENL [3]): 25100 ± 2500 nM
Molecule: Cc1ccc(C)c(S(=O)(=O)N2c3ccccc3NC3=C(C(=O)CCC3)C2c2cccs2)c1 (stereo not shown) [Compound 52]

IC50 (AF9 [2]; [7]): 5720 nM
Molecule: O=c1c(O)cccc2cc(O)c(O)c(O)c12 [CCG-38505]

IC50 (AF9 [2]; [6]): > 200000 nM
IC50 (AF9 [2]; [7]): > 200000 nM
IC50 (ENL [3]): > 200000 nM
Molecule: CC1(C)CC(=O)C2=C(C1)Nc1ccccc1N(S(C)(=O)=O)C2c1cccs1 (stereo not shown) [Compound 51]

IC50 (AF9 [2]; [6]): 46400 ± 12400 nM
IC50 (ENL [3]): 33200 ± 8700 nM
Molecule: Cc1ccc(S(=O)(=O)N2c3ccccc3NC3=C(C(=O)CC(C)(C)C3)C2c2ccco2)cc1 (stereo not shown) [Compound 41]

Kd (ENL (489-559)): 238 nM
Kd (AF9 (497-568)): 111 nM
B6: DOT1L (826-1095): recombinant DOT1L construct (protein)
chain: SPQDPRPLSPGALQLAGEKSSEKGLRERAYGSSGELITSLPISIPLSTVQPNKLPVSIPLASVVLPSRAERARSTPSPVLQPRDPSSTLEKQIGANAHGAGSRSLALAPAGFSYAGSVAISGALAGSPASLTPGAEPATLDESSSSGSLFATVGSRSSTPQHPLLLAQPRNSLPASPAHQLSSSPRLGGAAQGPLPEASKGDLPSDSGFSDPESEAKRRIVFTITTGAGSAKQSPSSKHSPLTASARGDCVPSHGQDSRRRGRRKRASAG

The remaining lines, values behind:

Molecule: CC[C@H](C)[C@H](NC(=O)[C@H](CO)NC(=O)[C@H](C)NC(=O)[C@@H]1CCCN1C(=O)[C@H](CC(C)C)NC(C)=O)C(=O)N1CCC[C@H]1C(=O)N[C@@H](CC(C)C)C(=O)N[C@@H](CO)C(=O)N[C@H](C(=O)N[C@H](C(N)=O)C(C)C)[C@@H](C)O [Compound I867A] (Ac-LPASIPLSTV-NH2)
IC50 (ENL [1]): > 200000 nM

Molecule: O=C(c1cc(O)c(O)c(O)c1)c1ccc(O)c(O)c1O [CCG-208095]
IC50 (AF9 [2]; [7]): 6270 nM

Molecule: CC[C@H](C)[C@H](NC(=O)[C@@H]1CCCN1C(=O)[C@H](CC(C)C)NC(C)=O)C(=O)N[C@@H](CO)C(=O)N[C@@H](C)C(=O)N1CCC[C@H]1C(=O)N[C@@H](CC(C)C)C(=O)N[C@@H](CO)C(=O)N[C@H](C(=O)N[C@H](C(N)=O)C(C)C)[C@@H](C)O [Compound I869A] (Ac-LPISAPLSTV-NH2)
Ki (AF9 [4]): > 100000 nM
IC50 (ENL [1]): > 200000 nM
IC50 (AF9 [5]): > 200000 nM

Molecule: CC[C@H](C)[C@H](NC(=O)[C@@H]1CCCN1C(=O)[C@H](CC(C)C)NC(C)=O)C(=O)N[C@@H](CO)C(=O)N[C@H](C(=O)N1CCC[C@H]1C(=O)N[C@@H](CC(C)C)C(=O)N[C@@H](CO)C(=O)N[C@@H](C)C(=O)N[C@H](C(N)=O)C(C)C)[C@@H](C)CC [Compound T873A] (Ac-LPISIPLSAV-NH2)
Ki (AF9 [4]): 203 nM

B1: DOT1L (925-1095): recombinant truncated DOT1L construct (protein)
chain: AGSRSLALAPAGFSYAGSVAISGALAGSPASLTPGAEPATLDESSSSGSLFATVGSRSSTPQHPLLLAQPRNSLPASPAHQLSSSPRLGGAAQGPLPEASKGDLPSDSGFSDPESEAKRRIVFTITTGAGSAKQSPSSKHSPLTASARGDCVPSHGQDSRRRGRRKRASAG
Kd (ENL (489-559)): 6220 nM
Kd (AF9 (497-568)): 1820 nM

B2: DOT1L (854-925): recombinant truncated DOT1L construct, 72 amino acids (protein)
chain: AYGSSGELITSLPISIPLSTVQPNKLPVSIPLASVVLPSRAERARSTPSPVLQPRDPSSTLEKQIGANAHGA
Kd (ENL (489-559)): 90 nM
Kd (AF9 (497-568)): 42 nM

B3: DOT1L (826-937): recombinant truncated DOT1L construct (protein)
chain: SPQDPRPLSPGALQLAGEKSSEKGLRERAYGSSGELITSLPISIPLSTVQPNKLPVSIPLASVVLPSRAERARSTPSPVLQPRDPSSTLEKQIGANAHGAGSRSLALAPAGF
Kd (ENL (489-559)): 81 ± 6 nM
Kd (AF9 (497-568)): 78 ± 15 nM

B4: DOT1L (826-958): recombinant truncated DOT1L construct (protein)
chain: SPQDPRPLSPGALQLAGEKSSEKGLRERAYGSSGELITSLPISIPLSTVQPNKLPVSIPLASVVLPSRAERARSTPSPVLQPRDPSSTLEKQIGANAHGAGSRSLALAPAGFSYAGSVAISGALAGSPASLTP
Kd (ENL (489-559)): 122 ± 16 nM
Kd (AF9 (497-568)): 92 ± 8 nM

B5: DOT1L (854-1095): recombinant truncated DOT1L construct (protein)
chain: AYGSSGELITSLPISIPLSTVQPNKLPVSIPLASVVLPSRAERARSTPSPVLQPRDPSSTLEKQIGANAHGAGSRSLALAPAGFSYAGSVAISGALAGSPASLTPGAEPATLDESSSSGSLFATVGSRSSTPQHPLLLAQPRNSLPASPAHQLSSSPRLGGAAQGPLPEASKGDLPSDSGFSDPESEAKRRIVFTITTGAGSAKQSPSSKHSPLTASARGDCVPSHGQDSRRRGRRKRASAG
Kd (ENL (489-559)): 148 ± 14 nM
Kd (AF9 (497-568)): 135 ± 4 nM
